In publication doi:10.1101/2024.04.26.587986 (bioRxiv, 2024):

Target: the molecule itself
Assay: SEC

B1: β-galactosidase (GLB1), endogenous in mouse brain (enzyme, mouse (endogenous in mouse brain), UniProt P23780 30-647, looked up)
chain: QRTFKLDYSRDRFLKDGQPFRYISGSIHYFRIPRFYWEDRLLKMKMAGLNAIQMYVPWNFHEPQPGQYEFSGDRDVEHFIQLAHELGLLVILRPGPYICAEWDMGGLPAWLLEKQSIVLRSSDPDYLVAVDKWLAVLLPKMKPLLYQNGGPIITVQVENEYGSYFACDYDYLRFLVHRFRYHLGNDVILFTTDGASEKMLKCGTLQDLYATVDFGTGNNITQAFLVQRKFEPKGPLINSEFYTGWLDHWGKPHSTVKTKTLATSLYNLLARGANVNLYMFIGGTNFAYWNGANTPYEPQPTSYDYDAPLSEAGDLTKKYFALREVIQMFKEVPEGPIPPSTPKFAYGKVALRKFKTVAEALGILCPNGPVKSLYPLTFTQVKQYFGYVLYRTTLPQDCSNPKPIFSSPFNGVRDRAYVSVDGVPQGILDRNLMTALNIRGKAGATLDILVENMGRVNYGRFINDFKGLISNMTINSTVLTNWTVFPLNTEAMVRNHLWGREASDEGHLDGRSTSNSSDLILPTFYVGNFSIPSGIPDLPQDTFIQFPGWSKGQVWINGFNLGRYWPTMGPQKTLFVPRNILTTSAPNNITVLELEFAPCSEGTPELCTVEFVDTPVIS
stoichiometry N: 4
